Assay results reported in the supplement of paper PMC9112550, “Optimization of the antimicrobial peptide Bac7 by deep mutational scanning” (BMC Biology, 2022).

Tested on: Escherichia coli TOP10
Experiment: shrunken log2 fold change of peptide-encoding DNA abundance (4.5 h post-induction vs induction); higher = less antimicrobial activity (less host growth inhibition)
Conditions: time post-induction: 4.5 h; library: site-saturation at positions 5, 18, 19, 20
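Note: peptides expressed intracellularly from a pBAD plasmid library in pooled LB shake-flask culture, induced with 0.3% L-arabinose, DNA abundance read by NGS, three biological replicates, DESeq2 with apeglm shrinkage.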

Sequence	shrunken log2 fold change
RRIRLRPPRLPRPRPRPHTIPRP	-0.165
RRIRQRPPRLPRPRPRPLISPRP	-0.173
RRIRFRPPRLPRPRPRPFTKPRP	-0.411
RRIRNRPPRLPRPRPRPCPRPRP	-0.0673
RRIRVRPPRLPRPRPRPVWPPRP	0.257
RRIRNRPPRLPRPRPRPEGTPRP	0.105
RRIRGRPPRLPRPRPRPDTFPRP	0.43
RRIRFRPPRLPRPRPRPFTTPRP	-0.445
RRIRCRPPRLPRPRPRPMYKPRP	-0.471
RRIRPRPPRLPRPRPRPKKHPRP	-0.0812
RRIRLRPPRLPRPRPRPQRKPRP	0.198
RRIRTRPPRLPRPRPRPRNKPRP	-0.342
RRIRWRPPRLPRPRPRPAAPPRP	0.613
RRIRIRPPRLPRPRPRPVSHPRP	0.113
RRIRCRPPRLPRPRPRPEQCPRP	0.237
RRIRWRPPRLPRPRPRPNRWPRP	0.218
RRIRRRPPRLPRPRPRPAHSPRP	0.384
RRIRARPPRLPRPRPRPDTKPRP	0.0293
RRIRPRPPRLPRPRPRPPRQPRP	0.334
RRIRMRPPRLPRPRPRPQRCPRP	0.551
RRIRRRPPRLPRPRPRPVPSPRP	0.488
RRIRHRPPRLPRPRPRPFAMPRP	-0.424
RRIRTRPPRLPRPRPRPSAIPRP	-0.979
RRIRGRPPRLPRPRPRPPFNPRP	1.66
RRIRERPPRLPRPRPRPNRGPRP	-0.00351

Sequence	shrunken log2 fold change
RRIRRRPPRLPRPRPRPFDGPRP	0.079
RRIRFRPPRLPRPRPRPCISPRP	-0.068
RRIRHRPPRLPRPRPRPAHQPRP	0.0515
RRIRRRPPRLPRPRPRPDNNPRP	-0.187
RRIRERPPRLPRPRPRPHKQPRP	-0.0572
RRIRLRPPRLPRPRPRPQRQPRP	0.316
RRIRKRPPRLPRPRPRPDDQPRP	-0.018
RRIRPRPPRLPRPRPRPFAWPRP	0.169
RRIRTRPPRLPRPRPRPDRFPRP	0.0382
RRIRWRPPRLPRPRPRPGCNPRP	-0.0626
RRIRRRPPRLPRPRPRPYPPPRP	-0.176
RRIRFRPPRLPRPRPRPWMGPRP	-0.592
RRIRIRPPRLPRPRPRPTSDPRP	-0.245
RRIRDRPPRLPRPRPRPVRYPRP	0.152
RRIRTRPPRLPRPRPRPNDQPRP	-0.212
RRIRNRPPRLPRPRPRPNHKPRP	-0.688
RRIRNRPPRLPRPRPRPSNPPRP	0.0568
RRIRRRPPRLPRPRPRPARPPRP	0.703
RRIRSRPPRLPRPRPRPWKTPRP	-0.0527
RRIRDRPPRLPRPRPRPGITPRP	0.297
RRIRNRPPRLPRPRPRPTKQPRP	-0.102
RRIRWRPPRLPRPRPRPEFVPRP	0.423
RRIRLRPPRLPRPRPRPWCTPRP	0.0254
RRIRSRPPRLPRPRPRPEINPRP	0.0112
RRIRHRPPRLPRPRPRPIGSPRP	-0.0183

Sequence	shrunken log2 fold change
RRIRGRPPRLPRPRPRPVWFPRP	0.239
RRIRKRPPRLPRPRPRPPRIPRP	0.323
RRIRERPPRLPRPRPRPPETPRP	-0.0785
RRIRRRPPRLPRPRPRPWAKPRP	0.0786
RRIRHRPPRLPRPRPRPIVAPRP	0.0238
RRIRARPPRLPRPRPRPCIYPRP	-0.0979
RRIRRRPPRLPRPRPRPMCPPRP	-0.119
RRIRGRPPRLPRPRPRPMSTPRP	0.44
RRIRPRPPRLPRPRPRPYVGPRP	-0.157
RRIRFRPPRLPRPRPRPMIIPRP	-0.871
RRIRWRPPRLPRPRPRPNFPPRP	0.0284
RRIRNRPPRLPRPRPRPTTNPRP	0.365
RRIRERPPRLPRPRPRPSHHPRP	-0.73
RRIRDRPPRLPRPRPRPGYRPRP	0.000964
RRIRARPPRLPRPRPRPFMEPRP	0.0746
RRIRARPPRLPRPRPRPGWTPRP	0.525
RRIRLRPPRLPRPRPRPNTKPRP	-0.543
RRIRRRPPRLPRPRPRPHYIPRP	-0.662
RRIRGRPPRLPRPRPRPLWHPRP	0.552
RRIRKRPPRLPRPRPRPRHMPRP	-0.0275
RRIRHRPPRLPRPRPRPPYCPRP	-0.0539
RRIRKRPPRLPRPRPRPFTKPRP	-0.0833
RRIRDRPPRLPRPRPRPEHCPRP	-0.0205
RRIRDRPPRLPRPRPRPVKQPRP	-0.0215
RRIRDRPPRLPRPRPRPVCYPRP	-0.0717

Sequence	shrunken log2 fold change
RRIRCRPPRLPRPRPRPENYPRP	-0.474
RRIRFRPPRLPRPRPRPPNKPRP	0.1
RRIRIRPPRLPRPRPRPADEPRP	-0.08
RRIRERPPRLPRPRPRPGWVPRP	0.381
RRIRARPPRLPRPRPRPKMRPRP	1.64
RRIRIRPPRLPRPRPRPQQFPRP	-0.709
RRIRIRPPRLPRPRPRPIRHPRP	-0.0741
RRIRARPPRLPRPRPRPFPYPRP	-0.164
RRIRVRPPRLPRPRPRPLAMPRP	0.209
RRIRKRPPRLPRPRPRPYYDPRP	-0.204
RRIRMRPPRLPRPRPRPPDHPRP	0.456
RRIRYRPPRLPRPRPRPHDLPRP	-0.00151
RRIRERPPRLPRPRPRPDILPRP	0.0234
RRIRNRPPRLPRPRPRPAENPRP	-0.0634
RRIRTRPPRLPRPRPRPPKSPRP	0.556
RRIRMRPPRLPRPRPRPRRNPRP	0.807
RRIRYRPPRLPRPRPRPSYWPRP	-0.716
RRIRIRPPRLPRPRPRPEHDPRP	-0.523
RRIRDRPPRLPRPRPRPVDFPRP	0.0775
RRIRQRPPRLPRPRPRPLGCPRP	-0.0282
RRIRMRPPRLPRPRPRPHNAPRP	0.207
RRIRYRPPRLPRPRPRPMMKPRP	-0.0161
RRIRRRPPRLPRPRPRPRRTPRP	0.46
RRIRQRPPRLPRPRPRPGVMPRP	-0.0819
RRIRHRPPRLPRPRPRPYMSPRP	-0.236

Sequence	shrunken log2 fold change
RRIRMRPPRLPRPRPRPPENPRP	-0.0255
RRIRKRPPRLPRPRPRPEWNPRP	0.599
RRIRVRPPRLPRPRPRPHMVPRP	-0.53
RRIRIRPPRLPRPRPRPETGPRP	-0.322
RRIRIRPPRLPRPRPRPTITPRP	-0.996
RRIRMRPPRLPRPRPRPLEGPRP	0.109
RRIRYRPPRLPRPRPRPNFIPRP	-1.22
RRIRNRPPRLPRPRPRPMTAPRP	-0.167
RRIRQRPPRLPRPRPRPHKCPRP	-0.364
RRIRGRPPRLPRPRPRPTTLPRP	0.507
RRIRARPPRLPRPRPRPMLMPRP	0.044
RRIRNRPPRLPRPRPRPKKIPRP	-0.187
RRIRDRPPRLPRPRPRPFNVPRP	-0.00548
RRIRERPPRLPRPRPRPHCSPRP	-0.279
RRIRDRPPRLPRPRPRPKIVPRP	-0.198
RRIRMRPPRLPRPRPRPEFCPRP	1.18
RRIRVRPPRLPRPRPRPSQTPRP	0.112
RRIRHRPPRLPRPRPRPCPAPRP	-0.231
RRIRLRPPRLPRPRPRPMWNPRP	-0.299
RRIRGRPPRLPRPRPRPPYAPRP	0.798
RRIRIRPPRLPRPRPRPVWWPRP	0.0779
RRIRERPPRLPRPRPRPQGKPRP	-0.345
RRIRQRPPRLPRPRPRPFKFPRP	-0.00873
RRIRYRPPRLPRPRPRPLMDPRP	-0.143
RRIRNRPPRLPRPRPRPIRLPRP	-0.0969

Sequence	shrunken log2 fold change
RRIRKRPPRLPRPRPRPAWIPRP	0.0453
RRIRHRPPRLPRPRPRPSDRPRP	-0.125
RRIRSRPPRLPRPRPRPMPPPRP	0.435
RRIRARPPRLPRPRPRPRESPRP	0.198
RRIRARPPRLPRPRPRPKHIPRP	-0.219
RRIRTRPPRLPRPRPRPDYYPRP	-0.356
RRIRQRPPRLPRPRPRPPIVPRP	-0.015
RRIRLRPPRLPRPRPRPGGFPRP	0.176
RRIRWRPPRLPRPRPRPVGNPRP	0.0858
RRIRRRPPRLPRPRPRPETMPRP	-0.0309
RRIRWRPPRLPRPRPRPIFAPRP	0.329
RRIRVRPPRLPRPRPRPYLQPRP	-0.946
RRIRCRPPRLPRPRPRPCAKPRP	-0.168
RRIRGRPPRLPRPRPRPYGHPRP	0.323
RRIRFRPPRLPRPRPRPPQGPRP	0.171
RRIRCRPPRLPRPRPRPSHGPRP	-0.33
RRIRMRPPRLPRPRPRPKRPPRP	0.85
RRIRKRPPRLPRPRPRPFNRPRP	-0.203
RRIRERPPRLPRPRPRPAYGPRP	-0.108
RRIRHRPPRLPRPRPRPRIYPRP	-0.584
RRIRRRPPRLPRPRPRPNHDPRP	0.196
RRIRHRPPRLPRPRPRPHGAPRP	-0.183
RRIRDRPPRLPRPRPRPSNPPRP	-0.281
RRIRDRPPRLPRPRPRPPRWPRP	0.331
RRIRSRPPRLPRPRPRPSYKPRP	-0.659
